Reference: patent publication US20150045540A1 (published 2015)
Where a chain is given by its changes, count along the chain named.

T1: Placenta Growth Factor (PlGF), human (human, UniProt P49763 21-149)
T1 chain: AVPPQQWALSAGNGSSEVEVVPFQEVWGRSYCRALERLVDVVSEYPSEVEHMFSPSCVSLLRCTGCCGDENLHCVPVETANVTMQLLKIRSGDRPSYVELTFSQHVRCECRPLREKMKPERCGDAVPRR

T2: VEGF (Example 4) (UniProt P15692 27-191)
T2 chain: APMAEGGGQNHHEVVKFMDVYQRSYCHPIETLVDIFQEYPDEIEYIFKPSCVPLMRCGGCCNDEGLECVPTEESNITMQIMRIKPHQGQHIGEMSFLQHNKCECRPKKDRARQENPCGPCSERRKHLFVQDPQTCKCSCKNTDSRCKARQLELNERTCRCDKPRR

B1: HC 9/SLC 4 (antibody)
chain 1: GQGTLVTVSSASTKGPSVFQPVLHQPPAMSSALGTTIRLTCTLRNDHDIGVYSVYWYQQRPGHPPRFLLRYFSQSDKSQGPQVPPRFSGSKDVARNRGYLSISELQPEDEAMYYCAMGARSRCWPRGFQSKHNSVTHVFGSGTQLTVLSQPKATPSVTLFPPSSEELQANKATLVCLMNDFYPGILTVTWKADGTPITQGVEMTTPSKQSNNKYAASSYLSLTPEQWRSRRSYSCQVMHEGSTVEKTVAPAECS
chain 2: MSWAPVLLMLFVYCTGCGPQPVLHQPPAMSSALGTTIRLTCTLRNDHDIGVYSVYWYQQRPGHPPRFLLRYFSQSDKSQGPQVPPRFSGSKDVARNRGYLSISVTHVFGSGTQLTVLSQPKQVQLVQ
B2: HC 9/SLC 5 (antibody)
chain 1: B1 chain 1
chain 2: MSWAPVLLMLFVYCTGCGPQPVLHQPPAMSSALGTTIRLTCTLRNDHDIGVYSVYWYQQRPGHPPRFLLRYFSQSDKSQGPQVPPRFSGSKDVARNRGYLSISVTHVFGSGTQLTVLSQPKAQVQLVQ
B3: HC 7/SLC 2 (antibody)
chain 1: GQGTLVTVSSASTKGPSQPVLHQPPAMSSALGTTIRLTCTLRNDHDIGVYSVYWYQQRPGHPPRFLLRYFSQSDKSQGPQVPPRFSGSKDVARNRGYLSISELQPEDEAMYYCAMGARSRCWPRGFQSKHNSVTHVFGSGTQLTVLSQPKATPSVTLFPPSSEELQANKATLVCLMNDFYPGILTVTWKADGTPITQGVEMTTPSKQSNNKYAASSYLSLTPEQWRSRRSYSCQVMHEGSTVEKTVAPAECS
chain 2: MSWAPVLLMLFVYCTGCGPQPVLHQPPAMSSALGTTIRLTCTLRNDHDIGVYSVYWYQQRPGHPPRFLLRYFSQSDKSQGPQVPPRFSGSKDVARNRGYLSISVTHVFGSGTQLTVLSQQVQLVQ
B4: HC 4/SLC 8 (antibody)
chain 1: GQGTLVTVSSASTKQPVLHQPPAMSSALGTTIRLTCTLRNDHDIGVYSVYWYQQRPGHPPRFLLRYFSQSDKSQGPQVPPRFSGSKDVARNRGYLSISELQPEDEAMYYCAMGARSRCWPRGFQSKHNSVTHVFGSGTQLTVLSQPKATPSVTLFPPSSEELQANKATLVCLMNDFYPGILTVTWKADGTPITQGVEMTTPSKQSNNKYAASSYLSLTPEQWRSRRSYSCQVMHEGSTVEKTVAPAECS
chain 2: MSWAPVLLMLFVYCTGCGPQPVLHQPPAMSSALGTTIRLTCTLRNDHDIGVYSVYWYQQRPGHPPRFLLRYFSQSDKSQGPQVPPRFSGSKDVARNRGYLSISVTHVFGSGTQLTVLSQPKATPSQVQLVQ
B5: 2 (antibody, V domains shown)
V domain 1: FQPVLHQPPAMSSALGTTIRLTCTLRNDHDIGVYSVYWYQQRPGHPPRFLLRYFSQSDKSQGPQVPPRFSGSKDVARNRGYLSISELQPEDEAMYYCAMGARSSVTHVFGSGTQLTVLS
V domain 2: QPVLHQPPAMSSALGTTIRLTCTLRNDHDIGVYSVYWYQQRPGHPPRFLLRYFSQSDKSQGPQVPPRFSGSKDVARNRGYLSISELQPEDEAMYYCAMGARSSVTHVFGSGTQLTVLS
B6: 6 (antibody, V domains shown)
V domain 1: B5 V domain 1 with F1P
V domain 2: B5 V domain 2
B7: 4 (antibody, V domains shown)
V domain 1: B5 V domain 1
V domain 2: B5 V domain 2
B8: 5 (antibody, V domains shown)
V domain 1: B5 V domain 1 with F1P
V domain 2: B5 V domain 2
B9: 7 (antibody, V domains shown)
V domain 1: B5 V domain 1 with F1P
V domain 2: B5 V domain 2
B10: 3 (antibody, V domains shown)
V domain 1: B5 V domain 1
V domain 2: B5 V domain 2

Molecular target: T1, Placenta Growth Factor (PlGF), human
Test: ELISA

EC50 [nM]	Binder
0.164	B1
0.172	B2
0.2	B3
0.18	B4

What follows are binders tested against Hepatocyte Growth Factor (HGF), human (human, UniProt P14210 32-728) (assay: ELISA).
Sequence of Hepatocyte Growth Factor (HGF), human (P14210 32-728): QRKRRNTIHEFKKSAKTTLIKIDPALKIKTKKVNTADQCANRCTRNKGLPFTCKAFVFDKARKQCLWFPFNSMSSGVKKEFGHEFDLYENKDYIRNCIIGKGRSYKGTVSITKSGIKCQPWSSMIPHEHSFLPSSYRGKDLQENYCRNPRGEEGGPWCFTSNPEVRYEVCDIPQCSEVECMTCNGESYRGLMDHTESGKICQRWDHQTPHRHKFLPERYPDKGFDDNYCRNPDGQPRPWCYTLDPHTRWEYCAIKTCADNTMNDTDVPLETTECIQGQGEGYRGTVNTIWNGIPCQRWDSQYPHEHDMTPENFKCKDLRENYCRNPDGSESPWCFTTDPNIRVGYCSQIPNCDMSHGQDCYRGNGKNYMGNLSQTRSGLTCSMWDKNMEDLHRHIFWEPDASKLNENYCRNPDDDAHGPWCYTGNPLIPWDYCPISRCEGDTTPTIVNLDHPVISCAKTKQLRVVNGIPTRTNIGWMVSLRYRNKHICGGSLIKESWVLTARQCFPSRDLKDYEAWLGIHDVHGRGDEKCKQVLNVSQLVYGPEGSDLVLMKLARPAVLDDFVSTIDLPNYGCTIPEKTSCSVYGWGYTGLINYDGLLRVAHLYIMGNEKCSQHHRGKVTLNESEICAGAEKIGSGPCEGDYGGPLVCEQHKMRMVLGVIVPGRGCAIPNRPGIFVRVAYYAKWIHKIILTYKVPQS

EC50 [nM]	Binder
0.063	B1
0.065	B2
0.057	B3
0.061	B4

What follows are binders tested against ErbB3 (UniProt P21860 20-643) (assay: binding).
Sequence of ErbB3 (P21860 20-643): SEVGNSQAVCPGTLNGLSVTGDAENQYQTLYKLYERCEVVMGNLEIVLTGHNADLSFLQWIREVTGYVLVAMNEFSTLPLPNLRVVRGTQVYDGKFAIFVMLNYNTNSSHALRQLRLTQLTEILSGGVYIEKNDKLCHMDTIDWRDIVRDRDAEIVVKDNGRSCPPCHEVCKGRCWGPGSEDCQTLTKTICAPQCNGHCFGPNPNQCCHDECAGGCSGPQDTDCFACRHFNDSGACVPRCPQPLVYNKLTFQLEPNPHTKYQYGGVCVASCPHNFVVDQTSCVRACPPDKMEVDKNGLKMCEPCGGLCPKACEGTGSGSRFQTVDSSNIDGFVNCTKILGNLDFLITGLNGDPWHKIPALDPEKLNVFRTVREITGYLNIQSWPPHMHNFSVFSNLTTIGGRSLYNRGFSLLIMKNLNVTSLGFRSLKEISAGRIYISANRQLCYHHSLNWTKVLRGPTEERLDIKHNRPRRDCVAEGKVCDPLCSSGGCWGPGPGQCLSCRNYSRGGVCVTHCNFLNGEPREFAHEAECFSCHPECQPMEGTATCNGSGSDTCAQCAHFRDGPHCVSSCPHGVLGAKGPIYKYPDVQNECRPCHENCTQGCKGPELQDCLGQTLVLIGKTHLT

EC50 [nM]	Binder
0.051	B5
0.048	B6
0.046	B7
0.058	B8
0.037	B9
0.05	B10

Molecular target: T2, VEGF (Example 4)
Test: binding

EC50 [nM]	Binder
0.016	B5
0.012	B6
0.015	B7
0.012	B8
0.013	B9
0.015	B10

Molecular target: T2, VEGF (Example 4)
Test: VEGF-KDR inhibition

IC50 [nM]	Binder
0.391	B5
0.589	B6
0.449	B7
0.409	B8
0.362	B9
0.429	B10
